In publication PMC3764424, “High-resolution Structural and Thermodynamic Analysis of Extreme Stabilization of Human Procarboxypeptidase by Computational Protein Design” (Journal of Molecular Biology, 2007):

Molecular target: the molecule itself
Experiment: AUC; sedimentation equilibrium, 20 °C, 25 mM Tris-HCl pH 8.0, 50 mM NaCl with and without 20 mM EDTA; 13, 33 and 50 μM protein; 25,000, 35,000 and 45,000 rpm; monomer-dimer model, dimer to monomers

B1: AYEdes (N-terminal His6 tag followed only by the 70 designed residues of AYEdesign) (other)
chain: KTIFVIVPTNEEQVAFLEALAKQDELNFDWQNPPTEPGQPVVILIPSDMVEWFLEMLKAKGIPFTVYVEE
  Kd: ~150 µM
